{"source": "patent EP2123670B1", "about": "(Bioxodes SA, dated 2017)", "binders": {"B1": {"name": "Ir-CPI (other)", "chain": "ANHKGRGRPAKCKLPPDDGPCRARIPSYYFDRKTKTCKEFMYGGCEGNENNFENITTCQEECRAKKV", "notes": "Expressed in E. coli as a GST fusion (pGEX-6P-1), released with PreScission protease and purified by gel filtration; Immobilised on a CM5 chip by amine coupling in the SPR assays; also called recombinant Ir-CPI"}}, "key": {"factor IX": {"biological_target": "T1, factor IX (UniProt P00740 47-461)", "T1 construct": "Zymogen; also called fIX", "experiment": "SPR (BIAcore X), Ir-CPI immobilised at 1500 RU on CM5, factor injected"}, "factor X": {"biological_target": "T2, factor X (UniProt P00742 41-488)", "T2 construct": "Zymogen; also called fX", "experiment": "SPR (BIAcore X), Ir-CPI immobilised at 1500 RU on CM5, factor injected"}, "thrombin": {"biological_target": "T3, thrombin (UniProt P00734 328-622)", "T3 construct": "also called factor IIa; IIa", "experiment": "SPR (BIAcore X), Ir-CPI immobilised at 1500 RU on CM5, factor injected"}, "factor VIIa": {"biological_target": "T4, factor VIIa (UniProt P08709 61-466)", "T4 construct": "also called fVIIa; FVIIa", "T4 sequence (looked up)": "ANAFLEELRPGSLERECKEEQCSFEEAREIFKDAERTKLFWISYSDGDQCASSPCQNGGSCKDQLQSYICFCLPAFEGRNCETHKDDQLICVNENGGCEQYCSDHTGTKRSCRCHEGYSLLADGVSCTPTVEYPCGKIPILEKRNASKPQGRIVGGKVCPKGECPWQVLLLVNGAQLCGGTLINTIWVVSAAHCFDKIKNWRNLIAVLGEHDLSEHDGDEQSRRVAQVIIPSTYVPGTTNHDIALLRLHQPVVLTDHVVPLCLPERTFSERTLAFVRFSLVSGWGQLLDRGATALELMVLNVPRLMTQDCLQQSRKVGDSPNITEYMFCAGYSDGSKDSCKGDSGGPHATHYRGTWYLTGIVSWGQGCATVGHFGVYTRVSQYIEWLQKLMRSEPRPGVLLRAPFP", "experiment": "SPR (BIAcore X), Ir-CPI immobilised at 1500 RU on CM5, factor injected"}, "t-PA": {"biological_target": "t-PA (UniProt P00750 36-562)", "sequence (P00750 36-562 limits assumed)": "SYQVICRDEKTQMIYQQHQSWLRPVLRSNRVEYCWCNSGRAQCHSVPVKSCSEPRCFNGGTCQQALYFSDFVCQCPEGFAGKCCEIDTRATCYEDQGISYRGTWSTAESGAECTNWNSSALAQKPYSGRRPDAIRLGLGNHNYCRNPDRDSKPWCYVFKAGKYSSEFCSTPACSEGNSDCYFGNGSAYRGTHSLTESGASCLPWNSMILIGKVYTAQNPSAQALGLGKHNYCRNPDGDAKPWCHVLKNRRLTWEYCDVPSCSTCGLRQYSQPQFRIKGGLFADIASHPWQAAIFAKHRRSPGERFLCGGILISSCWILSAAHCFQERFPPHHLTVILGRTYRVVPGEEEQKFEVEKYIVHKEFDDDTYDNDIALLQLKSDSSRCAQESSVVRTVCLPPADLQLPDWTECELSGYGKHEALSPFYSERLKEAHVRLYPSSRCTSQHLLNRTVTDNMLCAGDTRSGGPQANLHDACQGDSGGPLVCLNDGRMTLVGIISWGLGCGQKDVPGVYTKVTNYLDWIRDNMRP", "experiment": "SPR (BIAcore X), Ir-CPI immobilised at 1500 RU on CM5, factor injected"}, "plasminogen": {"biological_target": "T5, plasminogen (UniProt P00747 20-810, limits assumed)", "T5 construct": "Zymogen", "T5 sequence (P00747 20-810 limits assumed)": "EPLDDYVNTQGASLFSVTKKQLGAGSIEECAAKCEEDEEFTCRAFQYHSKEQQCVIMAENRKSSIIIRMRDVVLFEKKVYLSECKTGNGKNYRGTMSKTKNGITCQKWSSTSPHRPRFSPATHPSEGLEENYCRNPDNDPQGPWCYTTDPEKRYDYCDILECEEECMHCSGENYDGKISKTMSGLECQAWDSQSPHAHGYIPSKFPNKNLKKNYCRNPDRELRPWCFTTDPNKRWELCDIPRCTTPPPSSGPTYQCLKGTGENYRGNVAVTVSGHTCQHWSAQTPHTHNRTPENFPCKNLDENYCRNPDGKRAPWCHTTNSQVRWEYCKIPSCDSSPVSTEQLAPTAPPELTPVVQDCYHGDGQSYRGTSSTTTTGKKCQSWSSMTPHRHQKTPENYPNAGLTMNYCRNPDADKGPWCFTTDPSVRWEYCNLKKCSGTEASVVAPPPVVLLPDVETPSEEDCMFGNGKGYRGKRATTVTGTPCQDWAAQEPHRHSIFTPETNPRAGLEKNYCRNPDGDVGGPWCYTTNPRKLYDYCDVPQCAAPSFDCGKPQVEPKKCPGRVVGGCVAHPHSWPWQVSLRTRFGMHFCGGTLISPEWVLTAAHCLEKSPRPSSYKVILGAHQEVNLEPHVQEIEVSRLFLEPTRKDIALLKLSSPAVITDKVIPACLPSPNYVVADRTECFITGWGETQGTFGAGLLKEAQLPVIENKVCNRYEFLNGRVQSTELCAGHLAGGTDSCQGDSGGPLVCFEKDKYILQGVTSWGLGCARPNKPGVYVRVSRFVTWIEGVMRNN", "experiment": "SPR (BIAcore X), Ir-CPI immobilised at 1500 RU on CM5, factor injected"}, "[1]": {"biological_target": "T6, high molecular weight kininogen (UniProt P01042 19-644)", "T6 construct": "also called HMWK", "T6 sequence (looked up)": "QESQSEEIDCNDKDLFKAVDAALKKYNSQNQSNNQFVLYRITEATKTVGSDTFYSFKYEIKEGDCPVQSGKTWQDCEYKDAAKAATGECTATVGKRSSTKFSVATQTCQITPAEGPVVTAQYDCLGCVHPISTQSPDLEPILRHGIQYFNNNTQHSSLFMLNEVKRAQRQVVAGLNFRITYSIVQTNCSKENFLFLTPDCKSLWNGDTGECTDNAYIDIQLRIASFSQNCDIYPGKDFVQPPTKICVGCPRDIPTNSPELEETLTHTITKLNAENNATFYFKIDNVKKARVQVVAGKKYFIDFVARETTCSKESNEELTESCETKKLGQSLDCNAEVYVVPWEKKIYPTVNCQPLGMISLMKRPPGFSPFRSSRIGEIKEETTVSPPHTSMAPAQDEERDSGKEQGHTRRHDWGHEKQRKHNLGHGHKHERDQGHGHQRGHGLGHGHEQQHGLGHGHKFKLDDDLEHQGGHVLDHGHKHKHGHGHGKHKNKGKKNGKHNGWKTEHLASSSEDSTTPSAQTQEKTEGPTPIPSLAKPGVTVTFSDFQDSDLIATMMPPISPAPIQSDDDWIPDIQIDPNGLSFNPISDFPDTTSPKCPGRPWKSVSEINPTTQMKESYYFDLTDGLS", "experiment": "SPR (BIAcore X), Ir-CPI immobilised at 1500 RU on CM5, factor injected"}, "plasma kallikrein [2]": {"biological_target": "T7, plasma kallikrein (UniProt P03952 20-638)", "T7 construct": "The active enzyme is the cleaved two-chain form of the precursor", "T7 sequence (P03952 20-638 limits assumed)": "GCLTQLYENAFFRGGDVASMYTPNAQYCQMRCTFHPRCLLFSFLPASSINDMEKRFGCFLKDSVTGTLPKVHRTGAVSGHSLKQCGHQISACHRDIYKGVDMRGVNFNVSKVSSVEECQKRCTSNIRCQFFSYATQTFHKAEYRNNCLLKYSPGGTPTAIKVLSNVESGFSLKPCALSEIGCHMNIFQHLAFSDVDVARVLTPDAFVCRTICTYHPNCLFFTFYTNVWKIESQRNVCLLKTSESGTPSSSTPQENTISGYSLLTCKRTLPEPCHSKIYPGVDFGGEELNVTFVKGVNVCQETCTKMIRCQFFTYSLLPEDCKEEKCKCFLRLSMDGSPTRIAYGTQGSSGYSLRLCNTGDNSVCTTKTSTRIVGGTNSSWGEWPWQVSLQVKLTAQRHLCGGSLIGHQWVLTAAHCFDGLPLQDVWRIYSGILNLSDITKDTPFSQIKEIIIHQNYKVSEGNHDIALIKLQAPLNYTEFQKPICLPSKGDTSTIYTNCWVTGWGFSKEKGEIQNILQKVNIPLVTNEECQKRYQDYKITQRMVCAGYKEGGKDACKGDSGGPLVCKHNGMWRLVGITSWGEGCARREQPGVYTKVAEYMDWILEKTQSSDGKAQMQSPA", "experiment": "SPR, Ir-CPI immobilised; two-state model, forward rate of the conformation change"}, "factor XIa [3]": {"biological_target": "T8, factor XIa (UniProt P03951 19-625)", "T8 construct": "also called fXIa; FXIa", "experiment": "SPR, Ir-CPI immobilised; two-state model, forward rate of the conformation change"}, "plasmin [4]": {"biological_target": "T9, plasmin (UniProt P00747 97-810)", "T9 sequence (P00747 97-810 limits assumed)": "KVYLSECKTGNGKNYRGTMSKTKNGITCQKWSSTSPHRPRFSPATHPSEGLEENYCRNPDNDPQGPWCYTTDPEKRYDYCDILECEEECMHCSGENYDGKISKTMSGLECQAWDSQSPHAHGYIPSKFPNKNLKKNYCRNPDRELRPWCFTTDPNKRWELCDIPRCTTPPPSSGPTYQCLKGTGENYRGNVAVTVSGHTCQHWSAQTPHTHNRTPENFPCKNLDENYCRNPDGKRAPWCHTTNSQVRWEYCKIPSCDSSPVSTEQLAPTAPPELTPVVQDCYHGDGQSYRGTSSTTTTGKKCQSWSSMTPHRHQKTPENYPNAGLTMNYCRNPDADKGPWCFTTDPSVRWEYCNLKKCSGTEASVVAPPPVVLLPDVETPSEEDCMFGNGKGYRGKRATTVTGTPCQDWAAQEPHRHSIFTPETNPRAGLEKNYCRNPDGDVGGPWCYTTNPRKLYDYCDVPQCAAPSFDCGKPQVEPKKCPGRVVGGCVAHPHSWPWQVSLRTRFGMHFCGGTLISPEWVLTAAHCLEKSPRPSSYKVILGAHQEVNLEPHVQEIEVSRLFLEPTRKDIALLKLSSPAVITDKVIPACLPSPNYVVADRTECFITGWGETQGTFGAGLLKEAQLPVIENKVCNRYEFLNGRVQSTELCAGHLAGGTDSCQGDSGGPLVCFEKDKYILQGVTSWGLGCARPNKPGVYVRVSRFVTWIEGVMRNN", "experiment": "SPR, Ir-CPI immobilised; two-state model, forward rate of the conformation change"}, "plasma kallikrein [5]": {"biological_target": "T7, plasma kallikrein", "experiment": "SPR, Ir-CPI immobilised; two-state model, backward rate of the conformation change"}, "factor XIa [6]": {"biological_target": "T8, factor XIa", "experiment": "SPR, Ir-CPI immobilised; two-state model, backward rate of the conformation change"}, "plasmin [7]": {"biological_target": "T9, plasmin", "experiment": "SPR, Ir-CPI immobilised; two-state model, backward rate of the conformation change"}, "plasma kallikrein [8]": {"biological_target": "T7, plasma kallikrein", "experiment": "SPR, Ir-CPI immobilised; two-state model, global equilibrium constant K = ka1ka2/kd1kd2"}, "factor XIa [9]": {"biological_target": "T8, factor XIa", "experiment": "SPR, Ir-CPI immobilised; two-state model, global equilibrium constant K = ka1ka2/kd1kd2"}, "plasmin [10]": {"biological_target": "T9, plasmin", "experiment": "SPR, Ir-CPI immobilised; two-state model, global equilibrium constant K = ka1ka2/kd1kd2"}, "plasma kallikrein [11]": {"biological_target": "T7, plasma kallikrein", "experiment": "SPR (BIAcore X), Ir-CPI immobilised at about 200 RU, factor injected at 5-300 nM; two-state model, ka1 (first step)"}, "factor XIa [12]": {"biological_target": "T8, factor XIa", "experiment": "SPR (BIAcore X), Ir-CPI immobilised at about 200 RU, factor injected at 5-300 nM; two-state model, ka1 (first step)"}, "plasmin [13]": {"biological_target": "T9, plasmin", "experiment": "SPR (BIAcore X), Ir-CPI immobilised at about 200 RU, factor injected at 5-300 nM; two-state model, ka1 (first step)"}, "plasma kallikrein [14]": {"biological_target": "T7, plasma kallikrein", "experiment": "SPR (BIAcore X), Ir-CPI immobilised at about 200 RU, factor injected at 5-300 nM; two-state model, kd1 (first step)"}, "factor XIa [15]": {"biological_target": "T8, factor XIa", "experiment": "SPR (BIAcore X), Ir-CPI immobilised at about 200 RU, factor injected at 5-300 nM; two-state model, kd1 (first step)"}, "plasmin [16]": {"biological_target": "T9, plasmin", "experiment": "SPR (BIAcore X), Ir-CPI immobilised at about 200 RU, factor injected at 5-300 nM; two-state model, kd1 (first step)"}}}
{"binder": "B1", "values": [{"measurement": "binding result", "setting": "factor IX", "result": "no binding (tested: 100 nM)"}, {"measurement": "binding result", "setting": "factor X", "result": "no binding (tested: 100 nM)"}, {"measurement": "binding result", "setting": "thrombin", "result": "no binding (tested: 100 nM)"}, {"measurement": "binding result", "setting": "factor VIIa", "result": "no binding (tested: 100 nM)"}, {"measurement": "binding result", "setting": "t-PA", "result": "no binding (tested: 100 nM)"}, {"measurement": "binding result", "setting": "plasminogen", "result": "no binding (tested: 100 nM)"}, {"measurement": "binding result", "setting": "[1]", "result": "no binding (tested: 100 nM)"}, {"measurement": "ka2", "setting": "plasma kallikrein [2]", "result": 0.00834, "unit": "s⁻¹"}, {"measurement": "ka2", "setting": "factor XIa [3]", "result": 0.0298, "unit": "s⁻¹"}, {"measurement": "ka2", "setting": "plasmin [4]", "result": 0.00582, "unit": "s⁻¹"}, {"measurement": "kd2", "setting": "plasma kallikrein [5]", "result": 0.00142, "unit": "s⁻¹"}, {"measurement": "kd2", "setting": "factor XIa [6]", "result": 0.00232, "unit": "s⁻¹"}, {"measurement": "kd2", "setting": "plasmin [7]", "result": 0.00614, "unit": "s⁻¹"}, {"measurement": "Ka", "setting": "plasma kallikrein [8]", "result": "4.51e+06", "unit": "M⁻¹"}, {"measurement": "Ka", "setting": "factor XIa [9]", "result": "3.83e+08", "unit": "M⁻¹"}, {"measurement": "Ka", "setting": "plasmin [10]", "result": "3.3e+08", "unit": "M⁻¹"}, {"measurement": "kon", "setting": "plasma kallikrein [11]", "result": 34900, "unit": "M⁻¹ s⁻¹"}, {"measurement": "kon", "setting": "factor XIa [12]", "result": "2.31e+06", "unit": "M⁻¹ s⁻¹"}, {"measurement": "kon", "setting": "plasmin [13]", "result": 900000, "unit": "M⁻¹ s⁻¹"}, {"measurement": "koff", "setting": "plasma kallikrein [14]", "result": 0.0532, "unit": "s⁻¹"}, {"measurement": "koff", "setting": "factor XIa [15]", "result": 0.102, "unit": "s⁻¹"}, {"measurement": "koff", "setting": "plasmin [16]", "result": 0.00535, "unit": "s⁻¹"}]}
